Ends that are not written are not given here.
Assays:
recombinant human C5a = target: T1, recombinant human C5a (human, UniProt P01031 678-751); assay: SPR (Biacore), C5a amine-coupled to CM5 chip, peptide as analyte
T1 construct: domain: C5a anaphylatoxin (74-amino acid peptide); The calcium assay names recombinant human C5a; The SPR section says only 'C5a'; C5a is a 74-residue fragment of it; also called RhC5a; C5a anaphylatoxin
T1 sequence (looked up): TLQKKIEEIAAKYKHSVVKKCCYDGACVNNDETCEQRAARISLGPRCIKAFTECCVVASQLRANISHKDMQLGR
Description: (§1) FIG. 1. Binding of C-peptides to immobilized PL37-MAP and C5a using Biacore equipment. An overlay plot of response curves obtained from the Biacore instrument when various concentrations of Pep-A and Pep-B were injected. All samples were injected at time 0, and the association was monitored as an increase in RU. a, Various concentrations of Pep-A were injected over the PL37-MAP-coupled flow cell. b, The same concentrations of Pep-B were also injected over the PL37-MAP-coupled flow cell. c, Pep-A was injected over the C5a-coupled flow cell at the same concentrations of Pep-A as in FIG. 1a. d, The same concentrations of Pep-B were also injected over the C5a-coupled flow cell.
(§2) Binding interactions between PL37 or C5a with C-peptides were evaluated using surface plasmon resonance (SPR) technology with the Biacore system. PL37 and C5a were covalently immobilized on the CM5 sensor chip by amine coupling methods using N-ethyl-N-(dimethylaminopropyl)carbodiimide/N-hydroxysuccinimide (EDC/NHS) according to the manufacturer's instructions. […] Binding interactions were determined by passing samples simultaneously over both the EA-blocked cell and the flow cell with immobilized PL37 or C5a so as to obtain units of resonance response (RU) by subtraction of the background using Biacore software (BIA evaluation).

[1] = target: T2, PL37 in multiple antigenic peptide form (human, also: multiple antigenic peptide form, core and copy number not given here, abstract and print the sequence differently); assay: SPR (Biacore), PL37-MAP amine-coupled to CM5 chip, peptide as analyte
T2 construct: PL37 is the fragment aa 37-53 of C5a anaphylatoxin; The assays used the MAP form; its core and valency are not described; also called PL37-MAP
T2 peptide: RAARISLGPRCIKAFTE
Description: as §1
as §2, with “evaluation). […]” for “evaluation).”

- binding result (recombinant human C5a): no binding
- binding result [1]: no binding
B1: Peptide-B (peptide)
peptide: ASTAPARAGLPRLPKFF
notes: Synthetic 17-residue complementary peptide designed with MIMETIC against PL37; also called Pep-B; C-peptide B

From US20060063701A1 (INSTITUTE FOR PROTEIN SCIENCE, published 2006)
